Results reported in publication PMC5262380, “Structural insights into the mechanism of the DEAH-box RNA helicase Prp43” (eLife, 2017).
Numbering of substitutions follows the chain as printed. In names and notes the source's numbering stands.

Tests used:
[1] = substrate: Nc1ncnc2c1ncn2[C@@H]1O[C@H](COP(=O)(O)OP(=O)(O)OP(=O)(O)O)[C@@H](O)[C@H]1O; test: NADH-coupled ATPase assay (pyruvate kinase / lactate dehydrogenase); type: biochemical, Thermochaetoides thermophila; conditions: no RNA, ctPfa1-GP in five-fold excess, pH 7.5, 150 mM KCl, 3 mM MgCl2, 25 °C
Description: NADH-coupled ATPase assay (pyruvate kinase / lactate dehydrogenase) on ctPrp43 + ctPfa1-GP

[2] = substrate: Nc1ncnc2c1ncn2[C@@H]1O[C@H](COP(=O)(O)OP(=O)(O)OP(=O)(O)O)[C@@H](O)[C@H]1O; test: as above; type: biochemical, Thermochaetoides thermophila; conditions: no RNA, no G-patch, pH 7.5, 150 mM KCl, 3 mM MgCl2, 25 °C
Description: NADH-coupled ATPase assay (pyruvate kinase / lactate dehydrogenase) on ctPrp43

[3] = ctPrp43-IDSB, mainly oxidized (internal disulfide bond)

B1: ctPrp43 + ctPfa1-GP (Thermochaetoides thermophila DSM 1495; F181C/N623C) (protein)
chain: MADITKGTKRLSGEAEGSQDSKRVKTNGDKMDAKNPYLAHLEEKPEADFESLLDKLERRNTTAKQAEAVEDSDINPWTGQRHSERYFKILKARRKLPVNKQRQEFLDLYHNNQILVFVGETGSGKTTQIPQYVLYDELPHQTGKLIACTQPRRVAAMSVAQRVADELDVKLGEEVGYSIRCENKTSSKTLLKYMTDGQLLREAMHDRDMSRYSCIILDEAHERTLATDILMALLKQLSERRKDLKIIVMSATLDAQKFQSYFFNAPLLAVPGRTHPVEIFYTPEAERDYVEAAIRTVLQIHACEPEGDILLFLTGEEEIEDACRRISLEVDEMIRESDAGPMSVYPLYGTLPPHQQQRIFEKAPQPFRPGGRPGRKCIVATNIAETSLTIDGIVYVVDPGFSKQKIYNPRTRVESLLVSPISKASAQQRAGRAGRTRPGKCFRLYTEEAFKKELIEQTYPEILRSNLSNTVLELKKLGVEDLVHFDLMDPPAPETMMRALEELNYLACLDDDGELTPLGNLASEFPLDPALAVMLISSPEFYCSNEILSITSLLSVPQIWVRPANARKRADEMKAQFAHPDGDHLTLLNAYHAYKGAEARGEDMKKWCHEHFLSYRHLSSADCVRAQLKKIMETHGIELVSTPFHDKNYYTNIRRALLAGFFMQVAMRESSNSKVYKTVKDEQLVLIHPSTTVTTPYEWVVYNEFVLTTKQYVRTVTNIRPEWLLEIAPVYYDLSTFQKGEIKNALTRVAEKIRRQQAMKASKA
notes: full-length Prp43 (GST tag removed) plus G-patch fragment ctPfa1(662-742) in five-fold excess, both recombinant, tags cut; with Uncharacterized protein (G-patch protein Pfa1)
- Km [1, 3]: 29.04 ± 1.35 µM
- kcat [1, 3]: 3.32 s⁻¹

B2: ctPrp43 (Thermochaetoides thermophila DSM 1495; F181C/N623C) (protein)
chain: B1 chain
notes: full length (residues 1-764), recombinant, GST tag removed, expressed as previously described
- Km [2, 3]: 16.23 ± 2.38 µM
- kcat [2, 3]: 0.084 s⁻¹

B3: ctPrp43 (Thermochaetoides thermophila DSM 1495; T350G/Y348G) (protein)
chain: B1 chain with C181F, Y348G, T350G, C623N
notes: as for B2
- Km ([2]; ctPrp43-HL): 14.31 ± 0.71 µM
- kcat ([2]; ctPrp43-HL): 0.103 s⁻¹

B4: ctPrp43 + ctPfa1-GP (Thermochaetoides thermophila DSM 1495; F181G/R180G/T350G/Y348G) (protein)
chain: B1 chain with R180G, C181G, Y348G, T350G, C623N
notes: as for B1
- Km ([1]; ctPrp43-HT&HL): 25.17 ± 1.37 µM
- kcat ([1]; ctPrp43-HT&HL): 1.89 s⁻¹

B5: ctPrp43 (Thermochaetoides thermophila DSM 1495; F181G/R180G/T350G/Y348G) (protein)
chain: B1 chain with R180G, C181G, Y348G, T350G, C623N
notes: as for B2
- Km ([2]; ctPrp43-HT&HL): 16.72 ± 1.49 µM
- kcat ([2]; ctPrp43-HT&HL): 0.127 s⁻¹

B6: ctPrp43 + ctPfa1-GP (Thermochaetoides thermophila DSM 1495; T350G/Y348G) (protein)
chain: B1 chain with C181F, Y348G, T350G, C623N
notes: as for B1
- Km ([1]; ctPrp43-HL): 14.38 ± 0.89 µM
- kcat ([1]; ctPrp43-HL): 1.44 s⁻¹
